Experiment: yeast display, Sf9 membrane polyspecificity reagent, FACS + sequencing; frameworks hold sequencing errors
How it was run: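 Polyreactivity labels are assigned by the sorting gate from which each nanobody was recovered. The gates were low and high (top ~1%), set on anti-HA fluorescence for expression and streptavidin fluorescence for reagent binding. Before sorting, galactose-induced (36–48 hours) yeast display cells were stained for 1 hour at 4 °C with 10% biotinylated, detergent-solubilized Sf9 membrane reagent.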

Row | Sequence | polyreactivity (PSR sort gate)
1 | QVQLVESGGGLVQAGGSLRLSCAASGSTFTGNAMGWYRQAPGKERELVAAISRSGGSTFYADSVKGRFTISRDNAKNTVYLQINSLKPEDTAVYYCAAPVYLYGTVGRGDYWGQGTQVTVSS | high polyreactivity
2 | QVQLVESGGGLVQAGGSLRLSCAASGSTFTGNAMGWYRQAPGKERELVAAITKGGSRTYYADSVKGRFTISRDNAKNTVYLQMNSLKPEDTAVYYCAATSRGTDYWGQGTQVTVSS | high polyreactivity
3 | QVQLVESGGGLVQAGGSLRLSCAASGSTFTGNVMGWYRQAPGKERELVAAIRDSGGSTYYADSVKGRFTISRDNAKNTVYLQMNSLKPEDTAVYYCDAEYLYGSYYGYYYWGQGTQVTVSS | low polyreactivity
4 | QVQLVESGGGLVQAGGSLRLSCAASGSTFTGYAMGWYRQAPGKERELVAGITGSGGSTYYADSVKGRFTISRDNATNTVYLQMNSLKPEDTAVFYCAAAFWYQYVWLDYYWGQGTQVTVSS | low polyreactivity
5 | QVQLVESGGGLVQAGGSLRLSCAASGSTFTHYAMGWYIQAPWKERELVAGISWGGSSTYYADSVKGRFTISRDNAKNTVYLQMNSLKPEDTAVYYCAAGRRGSYPGGYGYWGQGTQVTVSS | low polyreactivity
6 | QVQLVESGGGLVQAGGSLRLSCAASGSTFTHYAMGWYRQAPGKERELVAAITSSGGSTYYADSVKGRFTISRDNAKNTDYLQMNSLKPVDTAVYYCAARGSYRNRYRHDYWGQGTQVTVSS | high polyreactivity
7 | QVQLVESGGGLVQAGGSLRLSCAASGSTFTHYVMGWYRQEPGKQREIVAAISDSGSTYYADSVKGRFTISRDNAKNTVYLQMNSLNPEDTAVYYCNADDVDFYYGYGYLYYDYWGQGTQVTVSS | low polyreactivity
8 | QVQLVESGGGLVQAGGSLRLSCAASGSTFTINAMGWYRQAPGKERELVAAISWSDVDTYYADSVKGRFTISGDTAKNTVYLQMNSLKPEDTAVYYCSAQFSYRYYTDEVGYLGQGTQVTVSS | high polyreactivity
9 | QVQLVESGGGLVQAGGSLRLSCAASGSTFTIYAMGWYRQAPGKEREFVAAIDEDDGSTYYADSVKGRFTISRDNAKNTVYLQMNSLKPEDTAVYYCNADDIWGYAFDYWGQGTQVTVSS | low polyreactivity
10 | QVQLVESGGGLVQAGGSLRLSCAASGSTFTLNAMGWYRQAPGKERELVADISWSSGRTYYADSVKGRFTISRDTEKNTVYLQMNSLKPEDTAVYYCATDDLSIVKFYAYYPEFDYWGQGTQVTVSS | low polyreactivity
11 | QVQLVESGGGLVQAGGSLRLSCAASGSTFTLYAMGWYRQAPGKERELVATIDWSGGSTYYADSVKGRFTISRDNAKNTVYLQMNSLKPEDTAVYYCAADSYVVFYRGYTFIAVHSYEYWGQGTQVTVSS | low polyreactivity
12 | QVQLVESGGGLVQAGGSLRLSCAASGSTFTNYAMGWYRQAPGKEREFVAAITFRGGRTYYADSVKGRFTISRDNAKNTVYLQMNSLKPEDTAVYYCNKRTSPKRFDYWGQGTQVTVSS | high polyreactivity
13 | QVQLVESGGGLVQAGGSLRLSCAASGSTFTNYAMGWYRQAPGKERELVAAINSGGSTHYADSVKGRFTISRDNAKNTVYLQMNSLKPEDTAVYYCAADPSALVYYWRWLGYDYWGQGTQVTVSS | high polyreactivity
14 | QVQLVESGGGLVQAGGSLRLSCAASGSTFTPNAMGWYRQAPGKERELVAAITTRGSSTYYADSVKGRFTISRDNAKNTVYLQMNSLKPEDTAVYYCNAGVTFRRYDYWGQGTQVTVSS | high polyreactivity
15 | QVQLVESGGGLVQAGGSLRLSCAASGSTFTPYAIGWYRQAPGKERELVAAIRRGGSTNYADSVKGRFTISRDNAKNTVYLQMNSLKPEDTAVYYCAATKRRFVKFDYWGQGTQVTVSS | low polyreactivity
16 | QVQLVESGGGLVQAGGSLRLSCAASGSTFTPYAMGWYRQAPGKERELVAAISIRGGSTNYADSVKGRFTISRDNAKNTVYLQMNSLKPEDTAVYYCNAGRLRYIFKSYDYWGQGTQVTVSS | high polyreactivity
17 | QVQLVESGGGLVQAGGSLRLSCAASGSTFTPYAMGWYRQAPGKERELVAAISWSDDSTYYADSVKGRFTISRDIAKNTVYLQMNSLKPEDTAVYYCAASAYVDYGVYTYIMDYWGQGTQVTVSS | high polyreactivity
18 | QVQLVESGGGLVQAGGSLRLSCAASGSTFTQYAMGWYRQEPGKERELVAAITGSGGRTYYADSVKGRFTISRDNAKNTVYLQMNSLKPEDTAVYYCAARDKFGGYYHWGQGTQVTVSS | high polyreactivity
19 | QVQLVESGGGLVQAGGSLRLSCAASGSTFTRNAMGLYRQAPGKERELVAAITSGGSTNYADSVKGRFTISRDNAKNTVYLQMNSLKPEDTAVYYCNAESPLSYTRHDSWGQGTQVTVSS | low polyreactivity
20 | QVQLVESGGGLVQAGGSLRLSCAASGSTFTRNAMGWYRQAPGKERELVATISRSGGSTYYADSVKGRFTISRDNAKNTVYLQMNSLKPEDTAVYYCARPYQYYKFYSHDYWGQGTQVTVSS | high polyreactivity
21 | QVQLVESGGGLVQAGGSLRLSCAASGSTFTRYAMGWYRQAPGKERELVAAISSGGSTYADSVKGRFTISRDNAKNTVYLQMNSLKPEDTAVYYCAARLYTYPKGKYWGQGTQVTVSS | high polyreactivity
22 | QVQLVESGGGLVQAGGSLRLSCAASGSTFTRYAMGWYRQAPGKERELVAGITGRGGSTYYADSVKGRFTISRDNAKNTVYFQMNSLKPEDTAVYYCNKRRRGVTTYDYWGQGTQVTVSS | high polyreactivity

Row | Sequence | polyreactivity (PSR sort gate)
23 | QVQLVESGGGLVQAGGSLRLSCAASGSTFTRYGMGWYRQAPGKEREMVAAITTSGSSTYYADSVKGRFTISRDNAKNTVYLQMNSLKPEDTAVYYCAADWSSWGFDYWGQGTQVNVSS | low polyreactivity
24 | QVQLVESGGGLVQAGGSLRLSCAASGSTFTSNAMGWYRQAPGKERELVASISGSGGRTYYADSVKGRFTISRDNAKNTVYLQMNSLKPEDTAVYYCARRHSVRTVHGYDYWGQGTQVTVSS | low polyreactivity
25 | QVQLVESGGGLVQAGGSLRLSCAASGSTFTSYAKGCYRQAPGKERELVAAISRRGTSTYYADSVKGRFTISRDNAKHTVYLQMNSLKPEDTAVYYCAADGYYCEYYYWGQGTQVTVSS | high polyreactivity
26 | QVQLVESGGGLVQAGGSLRLSCAASGSTFTSYAMGWYRQAPGKEREFVAAISWSGGSTYYADSVKGRFTISRDNAKNTVYLQMNSLKPEDTAVYYCNAVLRSYYSPWYDYWGQATQVTVSS | high polyreactivity
27 | QVQLVESGGGLVQAGGSLRLSCAASGSTFTSYAMGWYRQAPGKERELVAAISKSGGSTYYADSVKGRFTISRDNAKNTVSLQMNSLKPEDSAVFYCAARYIVRSYSTSRFDYWGQGTQVTVSS | low polyreactivity
28 | QVQLVESGGGLVQAGGSLRLSCAASGSTFTSYTMGWYRQAPGKERELVARITRGGGSTYYADSVKGRFTISRDNAKNTVYLQMNSLKPEDTRSSPVLSYDYWGQGTQVTVSS | low polyreactivity
29 | QVQLVESGGGLVQAGGSLRLSCAASGSTFTSYTMGWYRQAPGKERELVARNTRGGGSTYYADSVKGRFTISRDNAKNTVYLQMNSLKPEDTAVYYCAKQVVGRAYYSWGQGTQVTVSS | low polyreactivity
30 | QVQLVESGGGLVQAGGSLRLSCAASGSTFTTNVMGWYRQAPGKERELVAAISWSSGSTYYADSVKGRFTISRDNAKNTVSLPMNSLKPEDTAVYYCAARQVIFYPYSRYYYWGQGTQVTVSS | high polyreactivity
31 | QVQLVESGGGLVQAGGSLRLSCAASGSTFTTYAMGWYRQAPGKERELVAAITVDGGGTYYADSVKGRFTISRDNAKNTVYLQMNSLKPVDTAVYYCAAVTKLGYPPVNHLEDDYWGQGTQVTVSS | low polyreactivity
32 | QVQLVESGGGLVQAGGSLRLSCAASGSTFTTYGMGWYRQAPGKERELVAGITFRGGSTYYADSVKGRFTISRDNAKNTVYLQMNSLKPEDTAVYYCAAERWRWYYSWTMDYWGQGTQVTVSS | high polyreactivity
33 | QVQLVESGGGLVQAGGSLRLSCAASGSTFTVNGMGWYRQAPGKERELVAAITWSGGSTYYADSVKGRFTISRDTAKNTVYLQMNSLKPEDTAVYYCAADENLYITGYDYWGQGTQVNVSS | low polyreactivity
34 | QVQLVESGGGLVQAGGSLRLSCAASGSTFTVYAMGWYRQAPGKEREFVAAITPSGASTYYADSVKGRFTISRDNAKNTVYLQMNSLKPEDTAVYYCNARSRTGYTNRMYYWGQGTQVTVSS | high polyreactivity
35 | QVQLVESGGGLVQAGGSLRLSCAASGSTFTVYAMGWYRQAPGKERELVAAISESGTSTYYADSVKGRFTISRDNAKNTVYLQMNSLNPEDTAVYYCAADGPGTSEDDYWGQGTQVTVSS | high polyreactivity
36 | QVQLVESGGGLVQAGGSLRLSCAASGSTFTWNAMGWYRQAPGTERELVAAITSGGRTYYADSVKGRFTISRDNAKNTVYLQMNSLKPEDTAVYYCAAKVRQYYSACNYYYWGQVTQVTVSS | high polyreactivity
37 | QVQLVESGGGLVQAGGSLRLSCAASGSTFTWNDMGRYRQAPGKERELVAGISLSAGSTYYADSVKGRFTISRDNAKNTDYLQMNSLKPEDTAVYYCNADPGGPDTYEEHDYWGQGTQVTVSS | low polyreactivity
38 | QVQLVESGGGLVQAGGSLRLSCAASGSTFTWYAMGWYRQAPGKERELVADISYGGGSTYYADSVKGRFTISRDNAKNTVYLQMNSLKPEDTAVYYCAAESIPYYSYDYWGQGTQVTVSS | low polyreactivity
39 | QVQLVESGGGLVQAGGSLRLSCAASGSTFTYNAMGWYRQAPGKERELVAAIRSNGGSTYADSVKGRFTISRDNAKNTVYLQMNCLKPEDTAVYYWAARWRDYYRWGSRGGYGYWGQGTQVTVSS | high polyreactivity
40 | QVQLVESGGGLVQAGGSLRLSCAASGSTFTYYAMGWYRKAPGKETELVAAIDFSGTSTYYADSVKGRFTISRDNAQNTVYLKMNSLKPEDTSVYYCAASQSWYWGGAHDNGEFGYWGQGTQVTVSS | low polyreactivity
41 | QVQLVESGGGLVQAGGSLRLSCAASGSTFTYYAMGWYRQAPGKERELVAAINYSGGSTYYADSVKGRFTISRDNAKNTVYLQMNSLKPEDTAVYYCAADGYIRQYVTYYYWGQGTQVTVSS | low polyreactivity
42 | QVQLVESGGGLVQAGGSLRLSCAASGSTFTYYAMGWYRQAPGKERELVAAISSNGGSTSYADSVKGRFTISRDNAKNTVYLPMNRLKPEDTAVYYCAVYKWSTRVSQYRYDYWGQGTQVTVSS | high polyreactivity
43 | QVQLVESGGGLVQAGGSLRLSCAASGSTFTYYAMGWYRQAPGKERELVASISGSGSRTYYADSVKGRFTISRDTAKNTVYLQMNSLTPEDTAVYSCAARFYVRWYYYGSYANYWGQGTQVTVSS | high polyreactivity

Reference: the nanobody polyreactivity screen of Harvey et al. (2022)
